Test results taken from PMC2926604 (Nucleic Acids Research, 2010).
Changes are numbered by the printed parent chain. Names and notes keep the numbering of the source.

T1: Archaeoglobus fulgidus exosome subunit Rrp42 (Archaeoglobus fulgidus, UniProt O29756 1-259)
T1 sequence: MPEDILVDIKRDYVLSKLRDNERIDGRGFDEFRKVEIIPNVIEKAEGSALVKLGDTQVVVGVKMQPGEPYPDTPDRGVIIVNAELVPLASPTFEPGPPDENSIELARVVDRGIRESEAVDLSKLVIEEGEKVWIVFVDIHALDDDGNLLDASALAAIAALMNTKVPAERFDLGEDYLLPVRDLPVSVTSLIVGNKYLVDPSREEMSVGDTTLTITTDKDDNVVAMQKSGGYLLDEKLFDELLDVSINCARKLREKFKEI

T2: Archaeoglobus fulgidus exosome subunit Rrp42 Y70A (Archaeoglobus fulgidus, UniProt O29756 1-259, Y70A)
T2 sequence: T1 sequence with Y70A

T3: Rrp41 (archaeal exosome subunit);Rrp42 (archaeal exosome subunit);Csl4 (exosome cap) (Archaeoglobus fulgidus (printed …, UniProt O29757;O29756;O30033 1-258;1-259;1-179, ||))
T3 sequence 1: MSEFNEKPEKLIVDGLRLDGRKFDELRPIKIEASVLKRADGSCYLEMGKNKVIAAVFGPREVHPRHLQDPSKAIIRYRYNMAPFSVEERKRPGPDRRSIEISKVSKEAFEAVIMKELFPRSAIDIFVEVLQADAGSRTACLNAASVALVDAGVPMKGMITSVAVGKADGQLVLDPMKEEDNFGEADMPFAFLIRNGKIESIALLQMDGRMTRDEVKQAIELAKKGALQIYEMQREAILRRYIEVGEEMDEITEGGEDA
T3 sequence 2: T1 sequence
T3 sequence 3: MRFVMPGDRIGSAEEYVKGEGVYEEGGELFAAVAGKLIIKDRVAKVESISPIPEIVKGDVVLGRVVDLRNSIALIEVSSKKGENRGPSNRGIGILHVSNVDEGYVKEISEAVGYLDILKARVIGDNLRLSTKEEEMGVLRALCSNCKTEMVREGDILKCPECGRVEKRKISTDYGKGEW

T4: Rrp41 (archaeal exosome subunit);Rrp42 Y70A;Csl4 (exosome cap) (Archaeoglobus fulgidus (printed …, UniProt O29757;O29756;O30033 1-258;1-259;1-179, |Y70A|))
T4 sequence 1: T3 sequence 1
T4 sequence 2: T1 sequence with Y70A
T4 sequence 3: T3 sequence 3

B1: Archaeoglobus fulgidus exosome subunit Rrp41 (natural protein)
chain: T3 sequence 1
B2: Archaeoglobus fulgidus exosome subunit Rrp41 D180A (natural protein)
chain: T3 sequence 1 with D180A
B3: Archaeoglobus fulgidus exosome cap subunit Csl4 (natural protein)
chain: T3 sequence 3
B4: Archaeoglobus fulgidus exosome cap subunit Rrp4 (natural protein, UniProt O29758 1-223, looked up)
chain: MRKIVLPGDLLSTNPRAAGYGTYVEGGKVYAKIIGLFDQTETHVRVIPLKGRYTPSVGDVVIGIIREVAANGWAVDIYSPYQAFLPVSENPEMKPNKKPNEVLDIGDAIIAKVLNIDPKMKVTLTMKDRICRPIRFGRIVAINPARVPRVIGKKGSMIKLLKSELDVQIVVGQNGLIWVNGDRRKVSIAEEAIYLIEQEAHTEGLTDRVAEFIKRRKADVGIQ

What was measured:
[1] = target: T1, Archaeoglobus fulgidus exosome subunit …; test: crystal structure
[2] = target: T2, Archaeoglobus fulgidus exosome subunit …; test: crystal structure
[3] = target: T1, Archaeoglobus fulgidus exosome subunit …; test: SAXS
[4] = target: B1; test: crystal structure
[5] = target: B2; test: SAXS
[6] = target: T3, Rrp41 (archaeal exosome subunit);Rrp42 …; test: X-ray crystallography
[7] = target: T4, Rrp41 (archaeal exosome subunit);Rrp42 …; test: X-ray crystallography

Binder	binding result [1]	binding result [2]	binding result [3]	other results
B1	binds	binds	–	–
B2	–	–	binds	–
B3	binds	binds	–	binding result [4]: binds
B4	–	–	binds	binding result [5]: binds
CCCCUC (ssRNA) [6-mer RNA for crystallization]	–	–	–	binding result [6]: binds; binding result [7]: binds
